Laboratory results: patent publication US20040087767

Target: A-183-CS-Z-fusion peptide, P38507

B1: Factor VIIa (protein)
chain: ANAFLEELRPGSLERECKEEQCSFEEAREIFKDAERTKLFWISYSDGDQCASSPCQNGGSCKDQLQSYICFCLPAFEGRNCETHKDDQLICVNENGGCEQYCSDHTGTKRSCRCHEGYSLLADGVSCTPTVEYPCGKIPILEKRNASKPQGRIVGGKVCPKGECPWQVLLLVNGAQLCGGTLINTIWVVSAAHCFDKIKNWRNLIAVLGEHDLSEHDGDEQSRRVAQVIIPSTYVPGTTNHDIALLRLHQPVVLTDHVVPLCLPERTFSERTLAFVRFSLVSGWGQLLDRGATALELMVLNVPRLMTQDCLQQSRKVGDSPNITEYMFCAGYSDGSKDSCKGDSGGPHATHYRGTWYLTGIVSWGQGCATVGHFGVYTRVSQYIEWLQKLMRSEPRPGVLLRAPFP
cleavage of the fusion peptide by FVIIa (HPLC, SDS-PAGE, N-terminal sequencing, mass spectrometry): the fusion peptide was cleaved after the putative P1 arginine only under enzymatically favorable conditions (sTF, pH 8.5); no cleavage was observed at pH 6.0 and the absence of sTF
